One molecule from article PMC3985441 (Bioscience Reports, 2014) can be followed below.

This experiment addresses T1, p110αEE^E545K/p85α complex (E545K oncogenic mutant PI3Kα) (human, UniProt P42336 1-1068; P27986 1-724, E545K).
T1 construct: p110α catalytic subunit of Class 1A PI3K, human, full length, somatic cancer mutation E545K in the helical domain; p85α regulatory subunit of Class 1A PI3K, human, full length; 1:1 heterodimer; also called E545K mutant; p110α^E545K/p85α; not shown: EE tag (glu-tag, 6 amino acids), C-terminal, kept; copies: 1 + 1
Description: pull-down; GST fusion proteins (1 μg) on glutathione agarose, PI3Kα complexes (100–3200 ng) in solution; TBS with 10% (v/v) FBS, 1 h at 4°C; washes in TBS with 0.1% Tween 20; bound PI3Kα detected by immunoblot for p85α. The conditions noted are these: both partners purified. For orientation: In western blotting, separated proteins are transferred to a membrane and probed.

T1 sequence (P42336 whole entry E545K, chain 1 of 2, the tested form may be a part): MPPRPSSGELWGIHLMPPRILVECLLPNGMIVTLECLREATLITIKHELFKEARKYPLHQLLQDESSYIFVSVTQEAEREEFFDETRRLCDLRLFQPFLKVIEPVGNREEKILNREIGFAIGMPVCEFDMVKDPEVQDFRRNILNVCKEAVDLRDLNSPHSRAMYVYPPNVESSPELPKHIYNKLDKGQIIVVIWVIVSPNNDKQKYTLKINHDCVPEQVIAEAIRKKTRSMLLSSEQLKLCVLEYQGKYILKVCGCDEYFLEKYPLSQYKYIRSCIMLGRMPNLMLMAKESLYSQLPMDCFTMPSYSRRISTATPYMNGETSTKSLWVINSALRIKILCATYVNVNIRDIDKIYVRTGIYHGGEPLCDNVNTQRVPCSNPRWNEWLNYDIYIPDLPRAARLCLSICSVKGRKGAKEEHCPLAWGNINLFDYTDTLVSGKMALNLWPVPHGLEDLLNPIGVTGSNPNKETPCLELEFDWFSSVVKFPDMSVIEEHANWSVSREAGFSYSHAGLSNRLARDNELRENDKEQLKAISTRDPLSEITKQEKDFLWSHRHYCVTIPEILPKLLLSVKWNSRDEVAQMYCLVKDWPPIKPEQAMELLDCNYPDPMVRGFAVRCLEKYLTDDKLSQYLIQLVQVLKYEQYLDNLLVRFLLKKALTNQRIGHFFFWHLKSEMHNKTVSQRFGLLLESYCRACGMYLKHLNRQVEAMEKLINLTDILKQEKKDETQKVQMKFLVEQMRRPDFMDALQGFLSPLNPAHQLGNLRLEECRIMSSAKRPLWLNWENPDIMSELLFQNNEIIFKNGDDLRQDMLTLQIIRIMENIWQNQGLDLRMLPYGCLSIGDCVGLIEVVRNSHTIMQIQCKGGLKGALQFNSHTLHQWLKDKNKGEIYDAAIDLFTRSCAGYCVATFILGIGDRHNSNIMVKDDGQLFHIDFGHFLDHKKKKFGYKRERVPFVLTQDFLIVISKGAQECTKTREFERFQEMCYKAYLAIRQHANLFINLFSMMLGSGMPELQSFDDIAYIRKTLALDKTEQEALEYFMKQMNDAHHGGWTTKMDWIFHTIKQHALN
T1 sequence (P27986 whole entry, chain 2 of 2, the tested form may be a part): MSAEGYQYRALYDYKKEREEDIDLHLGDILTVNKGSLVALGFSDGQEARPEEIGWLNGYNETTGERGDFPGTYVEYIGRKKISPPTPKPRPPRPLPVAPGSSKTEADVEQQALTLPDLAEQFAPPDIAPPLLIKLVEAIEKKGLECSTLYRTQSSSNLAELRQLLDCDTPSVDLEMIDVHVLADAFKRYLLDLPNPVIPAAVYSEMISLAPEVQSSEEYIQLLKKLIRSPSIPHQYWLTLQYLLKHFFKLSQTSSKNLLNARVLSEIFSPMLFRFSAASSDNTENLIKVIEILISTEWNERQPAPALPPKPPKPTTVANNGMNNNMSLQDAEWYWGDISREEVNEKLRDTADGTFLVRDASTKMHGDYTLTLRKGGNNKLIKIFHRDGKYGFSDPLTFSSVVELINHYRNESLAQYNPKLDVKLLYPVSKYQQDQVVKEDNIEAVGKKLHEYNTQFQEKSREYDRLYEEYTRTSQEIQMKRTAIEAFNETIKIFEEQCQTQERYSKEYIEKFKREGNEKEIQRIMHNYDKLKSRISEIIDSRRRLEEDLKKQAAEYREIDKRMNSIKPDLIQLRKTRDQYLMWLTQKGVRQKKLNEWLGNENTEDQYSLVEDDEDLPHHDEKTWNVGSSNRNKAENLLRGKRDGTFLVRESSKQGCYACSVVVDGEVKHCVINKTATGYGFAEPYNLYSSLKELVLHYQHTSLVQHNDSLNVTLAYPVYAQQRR

B1: GST-V12 Cdc42 (constitutively active Cdc42Hs) (natural protein)
chain: not shown
notes: Cdc42Hs, human, constitutively active (V12) form; Plasmid courtesy of Professor Anne Ridley; also called GST-Cdc42; source: E. coli BL21 (DE3), purified (glutathione agarose)
B1: the binding result is “binds”.
